Measured values taken from patent publication US20100015650.

Molecular target: T1, BRB1 tyrosine kinase substrate peptide
T1 chain: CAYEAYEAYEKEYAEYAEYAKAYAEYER

B1: LYNb (protein)
chain: MGCIKSKGKDSLSDDGVDLKTQPVPESQLLPGQRFQTKDPEEQGDIVVALYPYDGIHPDDLSFKKGEKMKVLEEHGEWWKAKSLLTKKEGFIPSNYVAKLNTLETEEWFFKDITRKDAERQLLAPGNSAGAFLIRESETLKGSFSLSVRDFDPVHGDVIKHYKIRSLDNGGYYISPRITFPCISDMIKHYQKQADGLCRRLEKACISPKPQKPWDKDAWEIPRESIKLVKRLGAGQFGEVWMGYYNNSTKVAVKTLKPGTMSVQAFLEEANLMKTLQHDKLVRLYAVVTREEPIYIITEYMAKGSLLDFLKSDEGGKVLLPKLIDFSAQIAEGMAYIERKNYIHRDLRAANVLVSESLMCKIADFGLARVIEDNEYTAREGAKFPIKWTAPEAINFGCFTIKSDVWSFGILLYEIVTYGKIPYPGRTNADVMTALSQGYRMPRVENCPDELYDIMKMCWKEKAEERPTFDYLQSVLDDFYTATEGQYQQQP
  Signal to Noise Ratio with BRB1 Peptide (TR-FRET kinase assay; kinase 1 nM): 33.1

B2: FER (protein)
chain: KSGVVLLNPIPKDKKWILSHEDVILGELLGKGNFGEVYKGTLKDKTSVAVKTCKEDLPQELKIKFLQEAKILKQYDHPNIVKLIGVCTQRQPVYIIMELVSGGDFLTFLRRKKDELKLKQLVKFSLDAAAGMLYLESKNCIHRDLAARNCLVGENNVLKISDFGMSRQEDGGVYSSSGLKQIPIKWTAPEALNYGRYSSESDVWSFGILLWETFSLGVCPYPGMTNQQAREQVERGYRMSAPQHCPEDISKIMMKCWDYKPENRPKFSELQKELTIIKRKLT
  Signal to Noise ratio with BRB1 Peptide (TR-FRET kinase assay; kinase 0.25 nM): 31

B3: CTK (protein)
chain: MAGRGSLVSWRAFHGCDSAEELPRVSPRFLRAWHPPPVSARMPTRRWAPGTQCITKCEHTRPKPGELAFRKGDVVTILEACENKSWYRVKHHTSGQEGLLAAGALREREALSADPKLSLMPWFHGKISGQEAVQQLQPPEDGLFLVRESARHPGDYVLCVSFGRDVIHYRVLHRDGHLTIDEAVFFCNLMDMVEHYSKDKGAICTKLVRPKRKHGTKSAEEELARAGWLLNLQHLTLGAQIGEGEFGAVLQGEYLGQKVAVKNIKCDVTAQAFLDETAVMTKMQHENLVRLLGVILHQGLYIVMEHVSKGNLVNFLRTRGRALVNTAQLLQFSLHVAEGMEYLESKKLVHRDLAARNILVSEDLVAKVSDFGLAKAERKGLDSSRLPVKWTAPEALKHGKFTSKSDVWSFGVLLWEVFSYGRAPYPKMSLKEVSEAVEKGYRMEPPEGCPGPVHVLMSSCWEAEPARRPPFRKLAEKLARELRSAGAPASVSGQDADGSTSPRSQEP
  Signal to Noise Ratio with BRB1 Peptide (TR-FRET kinase assay; kinase 20 nM): 2.5

B4: TEC (protein)
chain: MNFNTILEEILIKRSQQKKKTSPLNYKERLFVLTKSMLTYYEGRAEKKYRKGFIDVSKIKCVEIVKNDDGVIPCQNKYPFQVVHDANTLYIFAPSPQSRDLWVKKLKEEIKNNNNIMIKYHPKFWTDGSYQCCRQTEKLAPGCEKYNLFESSIRKALPPAPETKKRRPPPPIPLEEEDNSEEIVVAMYDFQAAEGHDLRLERGQEYLILEKNDVHWWRARDKYGNEGYIPSNYVTGKKSNNLDQYEWYCRNMNRSKAEQLLRSEDKEGGFMVRDSSQPGLYTVSLYTKFGGEGSSGFRHYHIKETTTSPKKYYLAEKHAFGSIPEIIEYHKHNAAGLVTRLRYPVSVKGKNAPTTAGFSYEKWEINPSELTFMRELGSGLFGVVRLGKWRAQYKVAIKAIREGAMCEEDFIEEAKVMMKLTHPKLVQLYGVCTQQKPIYIVTEFMERGCLLNFLRQRQGHFSRDVLLSMCQDVCEGMEYLERNSFIHRDLAARNCLVSEAGVVKVSDFGMARYVLDDQYTSSSGAKFPVKWCPPEVFNYSRFSSKSDVWSFGVLMWEVFTEGRMPFEKYTNYEVVTMVTRGHRLYQPKLASNYVYEVMLRCWQEKPEGRPSFEDLLRTIDELVECEETFGR
  Signal to Noise ratio with BRB1 Peptide (TR-FRET kinase assay; kinase 0.5 nM): 18.6

B5: FES (protein)
chain: MGFSSELCSPQGHGVLQQMQEAELRLLEGMRKWMAQRVKSDREYAGLLHHMSLQDSGGQSRAISPDSPISQSWAEITSQTEGLSRLLRQHAEDLNSGPLSKLSLLIRERQQLRKTYSEQWQQLQQELTKTHSQDIEKLKSQYRALARDSAQAKRKYQEASKDKDRDKAKDKYVRSLWKLFAHHNRYVLGVRAAQLHHQHHHQLLLPGLLRSLQDLHEEMACILKEILQEYLEISSLVQDEVVAIHREMAAAAARIQPEAEYQGFLRQYGSAPDVPPCVTFDESLLEEGEPLEPGELQLNELTVESVQHTLTSVTDELAVATEMVFRRQEMVTQLQQELRNEEENTHPRERVQLLGKRQVLQEALQGLQVALCSQAKLQAQQELLQTKLEHLGPGEPPPVLLLQDDRHSTSSSEQEREGGRTPTLEILKSHISGIFRPKFSLPPPLQLIPEVQKPLHEQLWYHGAIPRAEVAELLVHSGDFLVRESQGKQEYVLSVLWDGLPRHFIIQSLDNLYRLEGEGFPSIPLLIDHLLSTQQPLTKKSGVVLHRAVPKDKWVLNHEDLVLGEQIGRGNFGEVFSGRLRADNTLVAVKSCRETLPPDLKAKFLQEARILKQYSHPNIVRLIGVCTQKQPIYIVMELVQGGDFLTFLRTEGARLRVKTLLQMVGDAAAGMEYLESKCCIHRDLAARNCLVTEKNVLKISDFGMSREEADGVYAASGGLRQVPVKWTAPEALNYGRYSSESDVWSFGILLWETFSLGASPYPNLSNQQTREFVEKGGRLPCPELCPDAVFRLMEQCWAYEPGQRPSFSTIYQELQSIRKRHR
  Signal to Noise Ratio with BRB1 Peptide (TR-FRET kinase assay; kinase 1 nM): 24.9

B6: ITK (protein)
chain: NNFILLEEQLIKKSQQKRRTSPSNFKVRFFVLTKASLAYFEDRHGKKRTLKGSIELSRIKCVEIVKSDISIPCHYKYPFQVVHDNYLLYVFAPDRESRQRWVLALKEETRNNNSLVPKYHPNFWMDGKWRCCSQLEKLATGCAQYDPTKNASKKPLPPTPEDNRRPLWEPEETVVIALYDYQTNDPQELALRRNEEYCLLDSSEIHWWRVQDRNGHEGYVPSSYLVEKSPNNLETYEWYNKSISRDKAEKLLLDTGKEGAFMVRDSRTAGTYTVSVFTKAVVSENNPCIKHYHIKETNDNPKRYYVAEKYVFDSIPLLINYHQHNGGGLVTRLRYPVCFGRQKAPVTAGLRYGKWVIDPSELTFVQEIGSGQFGLVHLGYWLNKDKVAIKTIREGAMSEEDFIEEAEVMMKLSHPKLVQLYGVCLEQAPICLVFEFMEHGCLSDYLRTQRGLFAAETLLGMCLDVCEGMAYLEEACVIHRDLAARNCLVGENQVIKVSDFGMTRFVLDDQYTSSTGTKFPVKWASPEVFSFSRYSSKSDVWSFGVLMWEVFSEGKIPYENRSNSEVVEDISTGFRLYKPRLASTHVYQIMNHCWKERPEDRPAFSRLLRQLAEIAESGL
  Signal to Noise ratio with BRB1 Peptide (TR-FRET kinase assay; kinase 0.5 nM): 8.4

B7: SRM (protein)
chain: MEPFLRRRLAFLSFFWDKIWPAGGEPDHGTPGSLDPNTDPVPTLPAEPCSPFPQLFLALYDFTARCGGELSVRRGDRLCALEEGGGYIFARRLSGQPSAGLVPITHVAKASPETLSDQPWYFSGVSRTQAQQLLLSPPNEPGAFLIRPSESSLGGYSLSVRAQAKVCHYRVSMAADGSLYLQKGRLFPGLEELLTYYKANWKLIQNPLLQPCMPQKAPRQDVWERPHSEFALGRKLGEGYFGEVWEGLWLGSLPVAIKVIKSANMKLTDLAKEIQTLKGLRHERLIRLHAVCSGGEPVYIVTELMRKGNLQAFLGTPEGRALRLPPLLGFACQVAEGMSYLEEQRVVHRDLAARNVLVDDGLACKVADFGLARLLKDDIYSPSSSSKIPVKWTAPEAANYRVFSQKSDVWSFGVLLHEVFTYGQCPYEGMTNHETLQQIMRGYRLPRPAACPAEVYVLMLECWRSSPEERPSFATLREKLHAIHRCHP
  Signal to Noise ratio with BRB1 Peptide (TR-FRET kinase assay; kinase 0.5 nM): 32.5

B8: FRK (protein)
chain: MSNICQRLWEYLEPYLPCLSTEADKSTVIENPGALCSPQSQRHGHYFVALFDYQARTAEDLSFRAGDKLQVLDTLHEGWWFARHLEKRRDGSSQQLQGYIPSNYVAEDRSLQAEPWFFGAIGRSDAEKQLLYSENKTGSFLIRESESQKGEFSLSVLDGAVVKHYRIKRLDEGGFFLTRRRIFSTLNEFVSHYTKTSDGLCVKLGKPCLKIQVPAPFDLSYKTVDQWEIDRNSIQLLKRLGSGQFGEVWEGLWNNTTPVAVKTLKPGSMDPNDFLREAQIMKNLRHPKLIQLYAVCTLEDPIYIITELMRHGSLQEYLQNDTGSKIHLTQQVDMAAQVASGMAYLESRNYIHRDLAARNVLVGEHNIYKVADFGLARVFKVDNEDIYESRHEIKLPVKWTAPEAIRSNKFSIKSDVWSFGILLYEIITYGKMPYSGMTGAQVIQMLAQNYRLPQPSNCPQQFYNIMLECWNAEPKERPTFETLRWKLEDYFETDSSYSDANNFIR
  Signal to Noise ratio with BRB1 Peptide (TR-FRET kinase assay; kinase 0.5 nM): 9.7

B9: FAK (protein)
chain: LANSEKQGMRTHAVSVSETDDYAEIIDEEDTYTMPSTRDYEIQRERIELGRCIGEGQFGDVHQGIYMSPENPALAVAIKTCKNCTSDSVREKFLQEALTMRQFDHPHIVKLIGVITENPVWIIMELCTLGELRSFLQVRKYSLDLASLILYAYQLSTALAYLESKRFVHRDIAARNVLVSSNDCVKLGDFGLSRYMEDSTYYKASKGKLPIKWMAPESINFRRFTSASDVWMFGVCMWEILMHGVKPFQGVKNNDVIGRIENGERLPMPPNCPPTLYSLMTKCWAYDPSRRPRFTELKAQLSTILEEEKAQQEERMRMESRRQATVSWDSGGSDEAPPKPSRPGYPSPRSSEGFYPSPQHMVQTNHYQVSGYPGSHGITAMAGSIYPGQASLLDQTDSWNHRPQEIAMWQPNVEDSTVLDLRGIGQVLPTHLMEERLIRQQQEMEEDQRWLEKEERFLKPDVRLSRGSIDREDGSLQGPIGNQHIYQPVGKPDPAAPPKKPPRPGAPGHLGSLASLSSPADSYNEGVKLQPQEISPPPTANLDRSNDKVYENVTGLVKAVIEMSSKIQPAPPEEYVPMVKEVGLALRTLLATVDETIPLLPASTHREIEMAQKLLNSDLGELINKMKLAQQYVMTSLQQEYKKQMLTAAHALAVDAKNLLDVIDQARLKMLGQTRPH
  Signal to Noise Ratio with BRB1 Peptide (TR-FRET kinase assay; kinase 3 nM): 1.7

B10: JAK2 (protein)
chain: RIGALGFSGAFEDRDPTQFEERHLKFLQQLGKGNFGSVEMCRYDPLQDNTGEVVAVKKLQHSTEEHLRDFEREIEILKSLQHDNIVKYKGVCYSAGRRNLKLIMEYLPYGSLRDYLQKHKERIDHIKLLQYTSQICKGMEYLGTKRYIHRDLATRNILVENENRVKIGDFGLTKVLPQDKEYYKVKEPGESPIFWYAPESLTESKFSVASDVWSFGVVLYELFTYIEKSKSPPAEFMRMIGNDKQGQMIVFHLIELLKNNGRLPRPDGCPDEIYMIMTECWNNNVNQRPSFRDLALRVDQIRDNMAG
  Signal to Noise Ratio with BRB1 Peptide (TR-FRET kinase assay; kinase 1 nM): 35.5

B11: JAK3 (protein)
chain: ALAPRDGLWNGAQLYACQDPTIFEERHLKYISQLGKGNFGSVELCRYDPLGDNTGALVAVKQLQHSGPDQQRDFQREIQILKALHSDFIVKYRGVSYGPGRQSLRLVMEYLPSGCLRDFLQRHRARLDASRLLLYSSQICKGMEYLGSRRCVHRDLAARNILVESEAHVKIADFGLAKLLPLDKDYYVVREPGQSPIFWYAPESLSDNIFSRQSDVWSFGVVLYELFTYCDKSCSPSAEFLRMMGCERDVPALCRLLELLEEGQRLPAPPACPAEVHELMKLCWAPSPQDRPSFSALGPQLDMLWSGSRGCETHAFTAHPEGKHHSLSFS
  Signal to Noise ratio with BRB1 Peptide (TR-FRET kinase assay; kinase 0.5 nM): 16.1
